From patent US20260250320A1, “LIPIDATED PEPTIDE INHIBITORS OF INTERLEUKIN-23 RECEPTOR” (Janssen Pharmaceutica NV, priority 2023, published 2026)
*1 amine or outer side, *2 acyl side, *3 side chain or, on linkers, in order; H or OH if unused. Bridges are numbered along the chain shown (N, C = ends). Primed or numbered codes have the meaning given here. Side-chain parts run from the residue outwards. [ ]: non-standard residue; d: D form. K(d) = (2R)-2-(4-((5-amino-5-carboxypentyl)amino)-4-oxobutanamido)-3-carboxy-N,N,N-trimethylpropan-1-aminium, C[N+](C)(C)C[C@@H](CC(=O)[*:3])NC(=O)CCC(=O)NCCCC[C@H](N[*:1])C(=O)[*:2]; PEG2′ = PEG2 spacer unit (not further defined); Trp(7-Me) = Cc1cccc2c(C[C@H](N)C(=O)O)c[nH]c12; γGlu = O=C(O)[C@H](CCC(=O)[*:2])N[*:1]; 2Nal = N[C@@H](Cc1ccc2ccccc2c1)C(=O)O; AEF = NCCOc1ccc(C[C@H](N)C(=O)O)cc1; 3Pal = N[C@@H](Cc1cccnc1)C(=O)O; NMecPEG3a = not defined here; Pen = CC(C)(S)[C@H](N)C(=O)O; PEG12′ = not defined here; PEG2″ = PEG2 spacer unit; PEG4′ = not defined here; Thp = NC1(C(=O)O)CCOCC1; Sar = CNCC(=O)O

T1: interleukin-23 receptor (IL-23R) (UniProt Q5VWK5 24-629, limits assumed)
T1 sequence (looked up): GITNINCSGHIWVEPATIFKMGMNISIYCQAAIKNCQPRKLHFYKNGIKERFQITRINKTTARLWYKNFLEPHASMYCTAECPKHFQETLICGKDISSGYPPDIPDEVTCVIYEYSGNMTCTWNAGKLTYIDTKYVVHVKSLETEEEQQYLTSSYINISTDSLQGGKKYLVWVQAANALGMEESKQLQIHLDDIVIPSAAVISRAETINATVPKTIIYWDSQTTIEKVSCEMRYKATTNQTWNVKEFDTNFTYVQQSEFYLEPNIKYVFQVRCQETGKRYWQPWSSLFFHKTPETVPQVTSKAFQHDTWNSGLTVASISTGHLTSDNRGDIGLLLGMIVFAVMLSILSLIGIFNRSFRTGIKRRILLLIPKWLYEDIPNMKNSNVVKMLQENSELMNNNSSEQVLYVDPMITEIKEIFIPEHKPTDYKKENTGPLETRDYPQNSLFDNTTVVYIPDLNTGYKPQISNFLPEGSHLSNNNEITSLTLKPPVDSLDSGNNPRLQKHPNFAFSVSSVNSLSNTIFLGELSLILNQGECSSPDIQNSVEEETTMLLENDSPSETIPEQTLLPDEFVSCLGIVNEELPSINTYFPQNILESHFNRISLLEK

B1: SEQ ID NO: 102 (peptide)
peptide: XNTXXXXXXXNXXK
modifications: MeCO-Pen(3)-N-T-7MeW-K(Ac)-Pen(3)-AEF-2Nal-THP-K(Ac)-N-3Pya-Sar-K(PEG12gEC18OH)-CONH2
B2: SEQ ID NO: 150 (peptide)
peptide: XNTXXXXXXENXXK
modifications: not fully specified; MeCO-Pen(3)-N-T-7MeW-K(Ac)-Pen(3)-AEF-2Nal-THP-E-N-3Pya-Sar-K(PEG2PEG2gEC18OH)-CONH(PEG3a)
B3: SEQ ID NO: 96 (peptide)
peptide: XNTXKXXXXENXX
modifications: MeCO-Pen(3)-N-T-7MeW-K(PEG12gEC18OH)-Pen(3)-AEF-2Nal-THP-E-N-3Pya-Sar-CONH2
B4: SEQ ID NO: 21 (peptide)
peptide: Ac-[dR][Pen]NT[Trp(7-Me)]K(Ac)[Pen][AEF][2Nal][Thp]K([PEG2′-PEG2′-γGlu-C18OH])N[3Pal]X-NH2
modifications: disulfide 2-7 (inferred); not fully specified (residue 14); printed as MeCO-r-Pen(3)-N-T-7MeW-K(Ac)-Pen(3)-AEF-2Nal-THP-K(PEG2PEG2gEC18OH)-N-3Pya-NMeK(d)-CONH2
B5: SEQ ID NO: 98 (peptide)
peptide: Ac-[dK]([PEG12′-γGlu-C18OH])[Pen]NT[Trp(7-Me)]K(Ac)[Pen][AEF][2Nal][Thp]K(Ac)N[3Pal][Sar]-NH2
modifications: disulfide 2-7 (inferred)
B6: SEQ ID NO: 116 (peptide)
peptide: {HOC18-γGlu-PEG12′}-[Pen]NTK(Ac)[Pen][AEF][2Nal][Thp]EN[3Pal][Sar]-NH2
modifications: disulfide 1-5 (inferred); not fully specified; printed as HOC18gEPEG12CO-Pen(3)-N-T-K(Ac)-Pen(3)-AEF-2Nal-THP-E-N-3Pya-Sar-CONH2
B7: SEQ ID NO: 97 (peptide)
peptide: Ac-[Pen]K([PEG12′-γGlu-C18OH])T[Trp(7-Me)]K(Ac)[Pen][AEF][2Nal][Thp]EN[3Pal][Sar]-NH2
modifications: disulfide 1-6 (inferred)
B8: SEQ ID NO: 9 (peptide)
peptide: Ac-[dR][Pen]NT[Trp(7-Me)]K(Ac)[Pen][AEF]([PEG2′-PEG2′-γGlu-C18OH])[2Nal][Thp][K(d)]N[3Pal][Sar]-NH2
modifications: disulfide 2-7 (inferred)
B9: SEQ ID NO: 134 (peptide)
peptide: Ac-[dR][Pen]NT[Trp(7-Me)]K(Ac)[Pen][AEF][2Nal][Thp]EN[3Pal][Sar]K([PEG12′-γGlu-C20OH])-NH2
modifications: disulfide 2-7 (inferred)
B10: SEQ ID NO: 99 (peptide)
peptide: Ac-[dR][Pen]K([PEG12′-γGlu-C20OH])T[Trp(7-Me)]K(Ac)[Pen][AEF][2Nal][Thp]EN[3Pal][Sar]-NH2
modifications: disulfide 2-7 (inferred)
B11: SEQ ID NO: 82 (peptide)
peptide: {HOC18-γGlu-PEG2″-PEG2″}-[dR][Pen]NT[Trp(7-Me)]K(Ac)[Pen][AEF][2Nal][Thp]K(NMecPEG3a)N[3Pal][Sar]-NH2
modifications: disulfide 2-7 (inferred); not fully specified; printed as HOC18gEPEG2PEG2CO-r-Pen(3)-N-T-7MeW-K(Ac)-Pen(3)-AEF-2Nal-THP-K(NMecPEG3a)-N-3Pya-Sar-CONH2; reading uncertain
B12: SEQ ID NO: 4 (peptide)
peptide: Ac-[dR][Pen]NT[Trp(7-Me)]K(Ac)[Pen][AEF][2Nal][Thp]K([PEG4′-AcCl])N[3Pal][Sar]K([PEG2′-PEG2′-γGlu-C18OH])-NH2
modifications: disulfide 2-7 (inferred)
B13: SEQ ID NO: 74 (peptide)
peptide: Ac-[dR][Pen]K([PEG2″-PEG2″-γGlu-C18OH])T[Trp(7-Me)]K(Ac)[Pen][AEF][2Nal][Thp]K(NMecPEG3a)N[3Pal][Sar]-NH2
modifications: disulfide 2-7 (inferred); reading uncertain; also: printed as MeCO-r-Pen(3)-K(PEG2PEG2gEC18OH)-T-7MeW-K(Ac)-Pen(3)-AEF-2Nal-THP-K(NMecPEG3a)-N-3Pya-Sar-CONH2
B14: SEQ ID NO: 105 (peptide)
peptide: Ac-[dR][Pen]K([PEG12′-γGlu-C18OH])T[Trp(7-Me)]K(Ac)[Pen][AEF][2Nal][Thp]EN[3Pal][Sar]-NH2
modifications: disulfide 2-7 (inferred)

molecular target: T1, interleukin-23 receptor (IL-23R); assay: cell-based or functional assay

| IC50, IL23R reporter assay [µM] | Binder |
| --- | --- |
| < 0.05 | B1 |
| ≥ 0.5 | B2 |
| < 0.05 | B3 |
| < 0.05 | B4 |
| < 0.05 | B5 |
| < 0.05 | B6 |
| < 0.05 | B7 |
| < 0.05 | B8 |
| < 0.05 | B9 |
| < 0.05 | B10 |
| < 0.05 | B11 |
| < 0.05 | B12 |
| < 0.05 | B13 |
| < 0.05 | B14 |

molecular target: T1, interleukin-23 receptor (IL-23R); assay: cell-based or functional assay; remark: another data set of the same source

| PBMC pSTAT3 IC50 [nM] | Binder |
| --- | --- |
| < 0.5 | B1 |
| ≥ 5 | B2 |
| < 0.5 | B3 |
| < 0.5 | B4 |
| < 0.5 | B5 |
| < 0.5 | B6 |
| < 0.5 | B7 |
| < 0.5 | B8 |
| < 0.5 | B9 |
| < 0.5 | B10 |
| < 0.5 | B11 |
| < 0.5 | B12 |
| < 0.5 | B13 |
| < 0.5 | B14 |
